Test results as given in patent publication US20050037969A1 (ARBOR VITA, published 2005).
Ends that are not written are not given here. * marks the point of attachment. Biotin = O=C1N[C@H]2[C@H](CS[C@H]2CCCCC(=O)*)N1

T1: GST-41.8 kD protein (KIAA0751) PDZ domain fusion protein (Mus musculus (Mouse), UniProt Q9EQZ7 682-763)
T1 construct: also called 41 kd; hypoth; not shown: glutathione S-transferase encoded by vector pGEX-3X (Pharmacia)
T1 sequence: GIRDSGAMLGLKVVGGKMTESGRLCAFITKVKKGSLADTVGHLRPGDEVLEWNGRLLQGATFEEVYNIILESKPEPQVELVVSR

T2: KIAA0807 (PDZ domain)-GST fusion protein (human, UniProt Q6P0Q8 1104-1192)
T2 construct: also called K807; KIAA807; not shown: glutathione S-transferase encoded by vector pGEX-3X (Pharmacia)
T2 sequence: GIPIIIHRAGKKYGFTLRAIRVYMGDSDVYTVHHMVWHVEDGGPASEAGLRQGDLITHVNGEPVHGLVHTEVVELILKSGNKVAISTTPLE

T3: GST-PTN-4 PDZ domain fusion protein (Homo sapiens (Human), UniProt P29074 517-605)
T3 construct: also called protein-tyrosine phosphatase meg1; not shown: glutathione S-transferase encoded by vector pGEX-3X (Pharmacia)
T3 sequence: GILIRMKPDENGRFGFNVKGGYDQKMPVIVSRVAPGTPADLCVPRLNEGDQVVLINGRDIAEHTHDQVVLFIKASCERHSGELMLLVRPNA

T4: GST-RGS12 PDZ domain fusion protein (human, UniProt O14924 17-85)
T4 construct: also called human regulator of G-protein signalling 12; not shown: glutathione S-transferase encoded by vector pGEX-3X (Pharmacia)
T4 sequence: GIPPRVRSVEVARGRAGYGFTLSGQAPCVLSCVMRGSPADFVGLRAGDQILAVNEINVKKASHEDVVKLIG

T5: GST-AF6 PDZ domain fusion protein (Homo sapiens (Human), UniProt P55196 1001-1093)
T5 construct: also called af-6 protein; not shown: glutathione S-transferase encoded by vector pGEX-3X (Pharmacia)
T5 sequence: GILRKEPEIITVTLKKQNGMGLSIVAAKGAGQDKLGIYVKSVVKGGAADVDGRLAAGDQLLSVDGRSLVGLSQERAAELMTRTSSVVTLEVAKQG

T6: GST-LIM protein PDZ domain fusion protein (Human, UniProt Q96HC4 2-85)
T6 construct: also called Human LIM protein; not shown: glutathione S-transferase encoded by vector pGEX-3X (Pharmacia)
T6 sequence: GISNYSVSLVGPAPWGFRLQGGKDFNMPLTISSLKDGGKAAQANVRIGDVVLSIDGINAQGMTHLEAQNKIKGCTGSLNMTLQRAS

T7: GST-KIAA0303 PDZ domain fusion protein (Homo sapiens (Human), UniProt O15021 1138-1228)
T7 construct: also called K303; not shown: glutathione S-transferase encoded by vector pGEX-3X (Pharmacia)
T7 sequence: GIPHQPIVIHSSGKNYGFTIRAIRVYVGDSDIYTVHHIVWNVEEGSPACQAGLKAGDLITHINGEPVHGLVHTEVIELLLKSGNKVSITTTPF

T8: GST-TAX-IP43 PDZ domain fusion protein (human, UniProt Q13884 109-180)
T8 construct: also called TAX43; not shown: glutathione S-transferase encoded by vector pGEX-3X (Pharmacia)
T8 sequence: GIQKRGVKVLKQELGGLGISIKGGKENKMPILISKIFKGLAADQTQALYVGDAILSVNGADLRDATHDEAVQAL

B1: CD138 C-terminal peptide AA18L, biotinylated (peptide)
peptide: Biotin-PKQANGGAYQKPTKQEEFYA
notes: also called CD138 (syndecan-1); CD138 (syndecan)
B2: Spectrin (beta) C-terminal peptide AA32L, biotinylated (peptide)
peptide: Biotin-SFPPCGHRENVPGQSLVSFV
notes: Marked (S), sticky; also called Spectrin beta (S); Spectrin β

How the values were obtained:
[1] = target: T9, GST-PSD95 fusion protein (PDZ domains 1-3) (human, UniProt P31016 56-395 (rat entry)); assay: G assay: biotinylated peptide on plate-bound GST-PDZ fusion, OD 450 nm
T9 construct: also called human post-synaptic density protein 95; not shown: glutathione S-transferase encoded by vector pGEX-3X (Pharmacia)

[2] = target: T10, NSP PDZ-GST fusion protein (Homo sapiens (Human), UniProt Q92743 370-466); assay: A/G assays
T10 construct: The label NSP is not explained in the excerpts

[3] = target: T1, GST-41.8 kD protein (KIAA0751) PDZ …; assay: G assay: biotinylated peptide on plate-bound GST-PDZ fusion, streptavidin-HRP, OD 450 nm
[4] = target: T11, GST-TIAM1 PDZ domain fusion protein (Homo sapiens (Human), UniProt Q13009 845-931); assay: A/G plate assays, Table 2 matrix
T11 construct: also called TLAM1; T-lymphoma invasion and metastasis inducing protein 1; not shown: glutathione S-transferase encoded by vector pGEX-3X (Pharmacia)

[5] = target: T2, KIAA0807 (PDZ domain)-GST fusion protein; assay: G assay on KIAA0807:GST fusion protein, 1 uM labeled peptide
[6] = target: T1, GST-41.8 kD protein (KIAA0751) PDZ …; assay: G assay: biotinylated peptide on plate-bound GST-PDZ fusion, OD 450 nm; no GST-alone bar on the sheet
[7] = target: T1, GST-41.8 kD protein (KIAA0751) PDZ …; assay: A/G assays
[8] = target: T9, GST-PSD95 fusion protein (PDZ domains …); assay: A/G assays
[9] = target: T3, GST-PTN-4 PDZ domain fusion protein; assay: A/G plate assays, Table 2 matrix
[10] = target: T4, GST-RGS12 PDZ domain fusion protein; assay: A/G plate assays, Table 2 matrix
[11] = target: T9, GST-PSD95 fusion protein (PDZ domains …); assay: G assay titration of biotinylated peptide on plate-bound GST-PDZ, apparent affinity from saturation fit
[12] = target: T1, GST-41.8 kD protein (KIAA0751) PDZ …; assay: A/G plate assays, Table 2 matrix
[13] = target: T5, GST-AF6 PDZ domain fusion protein; assay: A/G plate assays, Table 2 matrix
[14] = target: T6, GST-LIM protein PDZ domain fusion …; assay: A/G plate assays, Table 2 matrix
[15] = target: T9, GST-PSD95 fusion protein (PDZ domains …); assay: G assay: biotinylated peptide on plate-bound GST-PDZ fusion, streptavidin-HRP, OD 450 nm
[16] = target: T7, GST-KIAA0303 PDZ domain fusion protein; assay: A/G plate assays, Table 2 matrix
[17] = target: T2, KIAA0807 (PDZ domain)-GST fusion protein; assay: A/G plate assays, Table 2 matrix
[18] = target: T8, GST-TAX-IP43 PDZ domain fusion protein; assay: A/G plate assays, Table 2 matrix
[19] = target: T9, GST-PSD95 fusion protein (PDZ domains …); assay: A/G plate assays, Table 2 matrix

T10 sequence (Q92743 other isoform, or with tags, fused parts or gaps limits assumed): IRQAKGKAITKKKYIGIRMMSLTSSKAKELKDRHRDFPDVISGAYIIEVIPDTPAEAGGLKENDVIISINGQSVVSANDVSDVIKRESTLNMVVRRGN
T9 sequence (P31016 other isoform, or with tags, fused parts or gaps): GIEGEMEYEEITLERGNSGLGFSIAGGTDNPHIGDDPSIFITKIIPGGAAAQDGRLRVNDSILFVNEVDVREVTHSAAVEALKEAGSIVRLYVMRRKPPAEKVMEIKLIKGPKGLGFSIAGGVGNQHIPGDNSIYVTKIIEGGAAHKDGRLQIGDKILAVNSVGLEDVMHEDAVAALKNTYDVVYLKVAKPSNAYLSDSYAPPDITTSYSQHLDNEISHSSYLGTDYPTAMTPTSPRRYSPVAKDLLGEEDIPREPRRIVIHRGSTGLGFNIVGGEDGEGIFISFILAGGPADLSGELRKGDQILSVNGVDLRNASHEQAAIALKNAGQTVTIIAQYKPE
T11 sequence (Q13009 other isoform, or with tags, fused parts or gaps): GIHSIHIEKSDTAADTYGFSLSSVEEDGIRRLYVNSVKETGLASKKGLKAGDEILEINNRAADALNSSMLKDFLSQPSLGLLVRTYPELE

Binder	binding result [2]	binding result [7]	binding result [8]	binding result [10]	binding result [12]	binding result [17]	also measured
B1	no binding						binding result [1]: no binding; binding result [3]: binds; binding result [4]: binds
Biotin-PSWRRSSLSESENATSLTTF (also called CXCR5) [BLR-1 C-terminal peptide AA45L, biotinylated]	no binding						binding result [1]: no binding; binding result [5]: binds; binding result [6]: no binding
Biotin-EVICYIEKPGVETLEDSVF [CDW125 (IL5R) C-terminal peptide AA28L, biotinylated]	no binding	no binding	no binding	binds			binding result [9]: binds
Biotin-KDITSDSENSNFRNEIQSLV (also called CD95 (Apo-1/Fas); AAI3L) [CD95 (Fas) C-terminal peptide AA13L, biotinylated]	no binding						binding result [3]: binds; Kd [11]: 85 µM
Biotin-TREDIYVNYPTFSRRPKTRV [DNAM-1 C-terminal peptide AA22L, biotinylated]	no binding			binds	binds		binding result [13]: binds; binding result [14]: binds; binding result [15]: binds
Biotin-ISGTPTSTMVHGMTSSSSVV [Clasp-2 C-terminal peptide AA2L, biotinylated]	no binding						Kd [11]: 45 µM
Biotin-ARKANMKGSYSLVEAQKSKV (also called CD106) [VCAM1 C-terminal peptide AA17L, biotinylated]	no binding		no binding		binds	binds	binding result [4]: binds; binding result [16]: binds
Biotin-STNHSIGSTQSTPCSTSSMA (also called CD105 (endoglin)) [CD105 C-terminal peptide AA16L, biotinylated]	no binding	no binding	no binding				binding result [14]: binds
Biotin-TTNNNPNSAVNIKKIFTDV [KV1.3 C-terminal peptide AA33L, biotinylated]	no binding			binds	binds	binds	binding result [15]: binds
B2		no binding				binds	binding result [18]: binds; binding result [19]: binds; binding result [9]: binds; binding result [16]: binds; binding result [13]: binds
